“Also recorded” adds a separate entry of the source.

The text below walks through data of patent US20250134975A1, “CANCER VACCINE COMPRISING EPITOPE OF C-MET AND USE THEREOF” (KOREA UNIVERSITY RESEARCH AND BUSINESS FOUNDATION, priority 2022, published 2025).

Assay [1] concerns bone marrow monocytes (BMMs). Description: Osteoclastogenesis analysis in bone marrow monocytes (TRAP staining). In kind it is cell-based, C3 (1)-Tag mice. Conditions: IFN-γ 50, 100 ng/mL with M-CSF 30 ng/mL and RANKL 100 ng/mL, vs positive control. As for the experimental part: Primary mouse bone marrow monocytes (BMMs) were isolated from the hind limb bones (two femurs and two tibiae) of 4 to 8 week-old C3 (1)-Tag mice. The mouse BMMs were flushed into a 15 ml tube via 8 ml of a serum-free 2 mM EDTA α-MEM medium. A Lymphocyte Separation Medium (LSM: MP Biomedicals: Catalog No. 50494) was dispensed into a new tube, 8 ml of the flushed BMMs were gently added thereon and centrifuged at 1600 rpm for 20 minutes at room temperature. The isolated BMMs were inoculated at 3×10^5 cells/well in a 48-well plate with 0.5 mL of a medium per well and incubated in α-MEM containing 10% FBS and 1% antibiotics.
BMMs in a negative control group were treated with M-CSF (30 ng/mL), BMMs in a positive control group were treated with M-CSF and RANKL (100 ng/mL), and BMMs in an experimental group were stimulated by treatment with M-CSF, RANKL, and IFN-γ (50, 100 ng/mL). On days 1, 3, 5, and 7 of culture, the medium was replaced, and each experimental group was treated with M-CSF, RANKL, and IFN-γ. After 9 days of culture, staining was performed using a TRAP staining kit (KT-008, KAMIYA biomedical company, Seattle, WA, USA) after fixing the cells with 10% formalin. For each well, TRAP-positive (TRAP^+) multinucleated cells (TRAP^+ MNC) were counted. All the experiments were independently repeated three times.

The subject of another assay is M6-bone cells. Put plainly: Western blot of IFN-γ-treated cells. In kind it is cell-based, mouse. As to conditions: 100 ng/ml IFN-γ, 18 hours. The procedure: M6 and M6-bone cells were stimulated with 100 ng/ml recombinant mouse IFN-γ and cultured in a medium containing 1% FBS for 18 hours. The cells were lysed in a buffered mixture of a PRO-PREP™ protein extraction solution (iNtRON Biotechnology, 17081) and a phosphatase inhibitor cocktail (Gen DEPOT, p3200-001). Protein concentration was measured using the Bradford assay (Bio-rad, 500-0006, Hercules, CA, USA). 30 μg of the protein was separated by SDS-polyacrylamide gel electrophoresis and transferred to a PVDF membrane (10600023), and then the membrane was blocked with Tris-buffered saline containing 0.05% Tween 20 and 5% non-fat milk powder for 1 hour. The PVDF membrane was incubated overnight at 4° C. with primary antibodies. HIF1α (NB100-105, Novusbio), c-MET, Akt (Cat #9272), and p-Akt (Cat #9271) antibodies were purchased from Cell Signaling Technology (Beverly, MA, USA), and β-actin (Cat #A5316) was purchased from Sigma (Saint Louis, MO, USA). Subsequently, a horseradish peroxidase-conjugated secondary antibody was cultured at room temperature for 1 hour. Immunoreactive bands were detected with a chemiluminescent reagent (Cat #RPN2106).

B1: IFN-γ: recombinant mouse IFN-γ, key cytokine of Th1 immunity (protein, UniProt P01580 23-155, looked up)
Interferon gamma: HGTVIESLESLNNYFNSSGIDVEEKSLFLDIWRNWQKDGDMKILQSQIISFYLRLFEVLKDNQAISNNISVIESHLITTFFSNSKAKKDAFMSIAKFEVNNPQVQRQAFNELIRVVHQLLPESSLRKRKRSRC
In the case of B1, in assay [1], the “M-CSF and RANKL-induced osteoclastogenesis” value is “completely inhibited osteoclastogenesis; also recorded: inhibits”. Also, in the assay on M6-bone cells, the “expression of c-MET and p-Akt (Western blot)” value was “decreased”.
